# Test results published in patent US20240043859A1, “HERBICIDE-RESISTANT PROTEIN, AND GENE AND USE THEREOF” (QINGDAO KINGAGROOT CHEMICAL COMPOUND CO., LTD., priority 2020, published 2024).
# Entries after “also recorded” stand apart in the source; their conditions may differ.
# B1: QYD45: AAD-like enzyme, SEQ ID NO. 89 (protein)
# chain: MARPFDIAPLDATFGAIVTGVKLAGLDEACWRALHAAWLQYALLVFPNQHLARVEQIAFAKRFGPLEFEMAAISNVRADGSLRVETDNDDMMKILKGNMGWHADSTYMPVQAKGAVFSAEVVPTIGGQTGFADMRAAYDALDEDLKARVETLQAYHSLHYSQSRLGHETKKADGEYSGYGLHDGPVPLRPLVKTHPETGRKSLLIGRHAHAIPGMEPGESERFLQELIDFACQPPRVYRHNWAPGDAVLWDNRCLLHQATPWDMTQKRIMWHSRIAGDAAGETALAH
# modifications: Synthetic polypeptide, QYD45, D45
# B2: QYD53: AAD-like enzyme, SEQ ID NO. 105 (protein)
# chain: MASTLSLQPLEGITFGAVATGFRIAELDEPTWQALHDAWLDHALLIFPGQFLTRDEQIAFARRFGPLEFEMAAISNVKPDGTLRLEKDNDDMMKVLKGNMGWHADSTYMPVQAKGAVFSAEVVPTIGGETGWADMRAAYEALDAATREKIDGLSAFHSLHYSQSKLGHQTQKSDGQYNGYGLHDGPVPLRPLVKTHPETGRKSLLIGRHAHNIPGMDKAESERFLDGLIAFACQPPRVYHHHWAPGDVVVWDNRCLLHQATPWDMTQPRVMWHSRIAGDPASEAGLAA
# modifications: Synthetic polypeptide, QYD53, D53
# B3: QYD49: AAD-like enzyme, SEQ ID NO. 97 (protein)
# chain: MARTFDIEPLAGTTFGAVVRGMKVAILDDAGWRDLYAAWLKYALLVFPGQHLKRDEQIAFAKRFGALEFEMAALSNVKSDGTLRQEKDNDDMMKILKGNMGWHADSTYMPVQAKGAVFSAEIVPGAGGQTGFADMRAAYDALDAGRKAKVERLAAHHSLHYSQSKLGHQTKKQDGEYSGYGLHDGPVPLRPLVKTHPETGRKSLLIGRHAHNIPGMDKAESERLLQELVDFACQPPRVYHHDWTAGDAVVWDNRCLLHQATPWDMTQPRVMWHSRIAGDPRSEAALGVTAVSAAASG
# modifications: Synthetic polypeptide, QYD49, D49
# B4: QYD55: AAD-like enzyme, SEQ ID NO. 109 (protein)
# chain: MARPFDIEPLDATFGAVVRGVKVAALDDVTWRALHDAWLQYALLIFPGQHLSREAQIAFAKRFGPLEFEMAPISNVRADGSVRAEAENDDVIKVLKGNMGWHCDSTYMPVQAKGAVFSAEVVPGAGGQTGWADMRAAYDALDGDLRARIENLSAYHSLYYSQAKLDHRPSKSSAYSGYGFHDGPVPLRPLVKVHPETGRKSLLIGRHAHNIPGMDADESTRLLQSLVDFACRPPRIYHHHWTAGDTVVWDNRCLLHQATPWDMTQPRVMWHSRIAGDPASEAALA
# modifications: Synthetic polypeptide, QYD55, D55
# B5: QYD44: AAD-like enzyme, SEQ ID NO. 87 (protein)
# chain: MARAFDIAPLDATFGAVVTGVKLAEVDDAGWCDLHAAWLEHALLVFPDQHLTRAQQIAFARRFGPLEFEMAAISNVRPDGSLRVESDNDDMMKILKGNMGWHADSTYMPVQAKGAVFSAEVVPGSGGQTGFADMRAAYDALDENLKARVETLQARHSLHYSQSKLGHETKTADGEYSGYGLHDGPVPLRPLVKVHPETGRKSLLIGRHAHAIPGMERAESERLLQQLIDFACQPPRVYHHDWAPGDAVLWDNRCLLHQATPWDMTQKRIMWHSRIAGDPASETALAGAGP
# modifications: Synthetic polypeptide, QYD44, D44
# B6: QYD56: AAD-like enzyme, SEQ ID NO. 111 (protein)
# chain: MARTFDVQPLDATFGAVISGVKLAALDDETWRELYATWLQYALLVFPGQHLSRDQQIAFARRFGPLEFEIIALSNVKSDGTIRSEVENDDVIKVLKGNMGWHADSTYMPVQAKGAVFTAEVVPSVGGQTGWADMRAAYDALDGATRQKVEQLSAYHSLHYSQSKLGHQHKPGSAYSGYGFHDGPVPLRPLVKTHPETGRKSLLIGRHAHNIPGMDKDESARFLEDLVASACQPPRIYHHTWAAGDAVVWDNRCLLHQATPWDMTQPRVMWHSRIAGDPLSEAALG
# modifications: Synthetic polypeptide, QYD56, D56
# B7: QYD57: AAD-like enzyme, SEQ ID NO. 113 (protein)
# chain: MPQHFDVAPVDATFGAVVTNLKLANLDEPAFRELYATWLEHALLIFPGQFLTREQQIAFARRFGALEFEMAAISNVKSDGTLRREADNDDVVKILKGNMGWHADSTYMPLQAKGAVFSAKVVPSARGETGWADMRAAYDALDAAVRDRVERLSAYHSLHYSQAKAGFQHKDKKSEYSGYGLHDGPVPLRPLVKTHPETGRKSLLIGRHAHNIPGMEPEESERLLDGLVEFACQAPRTYHHSWKPGEAVIWDNRCLLHRAMPWDMTEPRIMWHSRIAGDPASEAAIN
# modifications: Synthetic polypeptide, QYD57, D57
# Tests used:
# [1] = tested on: Arabidopsis thaliana; assay: Herbicide resistance of transgenic Arabidopsis thaliana seedlings on plate medium (root growth); format: in vivo; conditions: for Resistance of transgenic Arabidopsis thaliana: 2,4-D / Resistance of transgenic Arabidopsis thaliana: MCPA: Arabidopsis overexpressing the gene
# In short: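 T2 lines overexpressed AAD from the AtUbi10 promoter with the MAS terminator, with hygromycin selection; two events per construct were tested on plates against 2,4-D, 2,4-DB sodium and MCPA. The screening medium was MS plus 0.3 μM 2,4-D. Seeds were stratified 3 days at 4 °C, grown at 22 °C on 16 h light, and root elongation was compared with wild type after one week.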
# [2] = Chromogenic reaction of degrading herbicides in bacteria: 2,4-D; format: cell-based, Escherichia coli; conditions: recombinant E. coli expressing the gene, 2,4-D added to the medium, red = phenols
# In short: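 E. coli BL21(DE3) carrying AAD12 or empty pET15b was induced with 0.1 mM IPTG plus 2 mM α-ketoglutarate and given 0.5 mM 2,4-D, then grown overnight at 28 °C. Supernatant was treated with pH 10 borate, potassium ferricyanide and 4-aminoantipyrine for 5 min at room temperature; red colour read at A510.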
# [3] = format: cell-based, Escherichia coli
# [4] = tested on: Arabidopsis thaliana; assay: Herbicide resistance of transgenic Arabidopsis thaliana seedlings on plate medium (root growth); format: in vivo; conditions: plate medium with 2,4-D (0.3 μmol)
Molecule,"Resistance of transgenic Arabidopsis thaliana: 2,4-D [1]",Resistance of transgenic Arabidopsis thaliana: MCPA [1],MCPA resistance of T1 generation transgenic seedlings ([1]; plate medium with MCPA (0.1 μmol)),"2,4-DB sodium resistance of T2 generation transgenic plants ([1]; plate medium, 2,4-DB sodium (0.7 μmol), two events per transformant)","MCPA resistance of T2 generation transgenic plants ([1]; plate medium, MCPA (0.1 μmol), two events per transformant)","Chromogenic reaction of degrading herbicides in bacteria: 2,4-D [2]","Chromogenic reaction of degrading herbicides in bacteria: 2,4-D ([2]; listed as D45)",Chromogenic reaction of degrading herbicides in bacteria: MCPA [3],"2,4-D resistance of T1 generation transgenic seedlings (seminal root growth) [4]","Chromogenic reaction of degrading herbicides in bacteria: 2,4-D ([2]; listed as D53)","Chromogenic reaction of degrading herbicides in bacteria: 2,4-D ([2]; listed as D49)","Chromogenic reaction of degrading herbicides in bacteria: 2,4-D ([2]; listed as D55)","Chromogenic reaction of degrading herbicides in bacteria: 2,4-D ([2]; listed as D44)","Chromogenic reaction of degrading herbicides in bacteria: 2,4-D ([2]; listed as D56)","Chromogenic reaction of degrading herbicides in bacteria: 2,4-D ([2]; listed as D57)"
B1,Yes,Yes,obvious resistance,obvious resistance,obvious resistance,Yes,"could degrade 2,4-D; also recorded: capable of degrading 2,4-D",Yes,"showing tolerance to 2,4-D; also recorded: lower resistance",–,–,–,–,–,–
B2,Yes,Yes,–,–,–,Yes,–,Yes,"showing tolerance to 2,4-D","could degrade 2,4-D; also recorded: capable of degrading 2,4-D",–,–,–,–,–
B3,Yes,Yes,–,–,–,Yes,–,Yes,"showing tolerance to 2,4-D",–,"could degrade 2,4-D; also recorded: capable of degrading 2,4-D",–,–,–,–
B4,Yes,–,–,–,–,Yes,–,Yes,"showing tolerance to 2,4-D",–,–,"could degrade 2,4-D; also recorded: capable of degrading 2,4-D",–,–,–
B5,Yes,Yes,–,–,–,Yes,–,Yes,"showing tolerance to 2,4-D",–,–,–,"could degrade 2,4-D; also recorded: capable of degrading 2,4-D",–,–
B6,Yes,–,–,–,–,–,–,Yes,"showing tolerance to 2,4-D",–,–,–,–,"could degrade 2,4-D; also recorded: capable of degrading 2,4-D",–
B7,Yes,Yes,–,–,–,Yes,–,Yes,"showing tolerance to 2,4-D",–,–,–,–,–,"could degrade 2,4-D; also recorded: capable of degrading 2,4-D"
